Source: US8337848

Biological target: amyloid precursor protein (APP), full length (106 kDa), from MOG-G-UVW cell lysate (human) (UniProt P05067)
Test: competition sandwich ELISA on APP from MOG cell lysate; competitor: APP DuoSet detection antibody; irrelevant IgG at 20 µg/ml

UniProt P05067, sequence (P05067 18-770): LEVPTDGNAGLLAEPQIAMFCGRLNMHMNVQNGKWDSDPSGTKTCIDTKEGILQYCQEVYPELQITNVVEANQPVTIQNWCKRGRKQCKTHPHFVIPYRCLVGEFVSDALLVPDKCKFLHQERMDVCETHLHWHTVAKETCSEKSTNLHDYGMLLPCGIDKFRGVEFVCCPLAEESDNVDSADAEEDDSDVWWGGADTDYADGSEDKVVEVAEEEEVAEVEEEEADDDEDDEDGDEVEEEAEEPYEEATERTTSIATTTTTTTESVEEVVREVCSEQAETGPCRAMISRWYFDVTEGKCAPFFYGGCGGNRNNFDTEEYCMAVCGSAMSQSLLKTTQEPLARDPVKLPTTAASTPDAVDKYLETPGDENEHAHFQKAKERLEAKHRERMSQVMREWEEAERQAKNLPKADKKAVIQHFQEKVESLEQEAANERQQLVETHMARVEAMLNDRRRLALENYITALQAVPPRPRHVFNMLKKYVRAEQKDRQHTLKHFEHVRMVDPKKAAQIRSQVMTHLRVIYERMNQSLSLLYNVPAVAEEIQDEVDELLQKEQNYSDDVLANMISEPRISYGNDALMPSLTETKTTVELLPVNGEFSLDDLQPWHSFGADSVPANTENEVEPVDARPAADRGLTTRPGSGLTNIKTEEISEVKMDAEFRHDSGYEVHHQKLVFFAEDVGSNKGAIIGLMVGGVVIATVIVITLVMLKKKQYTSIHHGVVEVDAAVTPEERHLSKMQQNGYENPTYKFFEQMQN

% reduction of the binding of the second commercial antibody: 3.3%
Substance: irrelevant mouse IgG antibody (Perbio Science)
